Results: publication doi:10.1101/323444
Values belong to the substance of their own block, whether it stands above or below them.

Assays:
Test in all cases: SEC
[1] = target: CckA ΔPAS-A-B ΔRD (Caulobacter crescentus)
[2] = target: CckA ΔPAS-A (Caulobacter crescentus)
[3] = target: CckA ΔPAS-A ΔRD (Caulobacter crescentus)
[4] = target: CckA (WT, N-terminal His-tag in place of its transmembrane helices) (Caulobacter crescentus) (UniProt Q9X688)

stoichiometry N (CckA per complex) [1]: 2
Substance: CckA ΔPAS-A-B ΔRD (domain or fragment)

stoichiometry N (CckA per complex) [2]: 3.1
Substance: CckA ΔPAS-A (domain or fragment)

stoichiometry N (CckA per complex) [3]: 2
Substance: CckA ΔPAS-A ΔRD (domain or fragment)

stoichiometry N (CckA per complex) [4]: 4
Substance: CckA (WT, N-terminal His-tag in place of its transmembrane helices) (from UniProt Q9X688 1-691) (enzyme)
